Source: patent US6072028, “EPR-1 proteins, polypeptides, and nucleic acid molecules encoding same” (The Scripps Research Institute, dated 2000)

How the values were obtained:
coagulation factor Xa [1] = target: T1, coagulation factor Xa (human, UniProt P00742); experiment: saturation binding of ^125 I-Xa to HuT 78* cells, 2.5 mM CaCl2
Description: The procedures for the isolation, characterization, and ^125I-labelling of factor Xa were as described previously by Altieri, et al., *J. Biol. Chem.* 264: 2969 (1989). The interaction of ^125I-Xa with HuT 78* cells was analyzed by incubating increasing concentrations of ^125I-Xa (0.45 to 36 nM) with cell suspension at 1.5 to 2×10^7/ml in the presence of 2.5 mM CaCl_2 for 20 minutes at room temperature. At the end of the incubation, the reaction was terminated by centrifugation of aliquots of the cell suspension at 12,000×g for 2 minutes through a mixture of silicone oil to separate free from cell-associated radioactivity. Nonspecific binding was quantified in the presence of 50-fold molar excess of unlabelled factor Xa added at the start of the incubation reaction, and was subtracted from the total to yield net specific binding. In some studies, aliquots of HuT 78* cells were preincubated with 50 µg/ml of mAb 9D4 for 30 minutes at room temperature before the addition of serial concentrations of ^125I-Xa.
HuT 78* cells reacting with the rabbit polyclonal antiserum B78.9 were isolated to 94.2% purity by fluorescence sorting and cloned by limiting dilution. […] The reaction was terminated by centrifugation through mixture of silicone oils and ^125I-Xa specific binding to HuT 78* cells was calculated in the presence or absence of anti-EPR-1 mAb 9D4.

coagulation factor Xa [2] = target: T1, coagulation factor Xa; experiment: saturation binding of ^125 I-factor Xa (0.45-36 nM) to EPR-1 CHO transfectants, 2.5 mM CaCl2
Description: In FIG. A, wild-type (WT) CHO cells (closed squares) or EPR-1 CHO transfectants (closed circles) were incubated with increasing concentrations of ^125I-factor Xa (0.45–36 nM) for 15 minutes at 22° C. In the presence of 2.5 mM CaCl_2. Non-specific binding was assessed in the presence of a 50-fold molar excess of unlabeled factor Xa and was subtracted from the total to calculate net specific binding. Data are the mean±S.E.M. of two independent experiments. ^125I-factor Xa bound at saturation (27 nM) to EPR-1 CHO transfectants corresponded to 729,000±102,000 molecules/cell. […] Thrombin formation in the presence or in the absence of anti-EPR-1 mAb 9D4 (Altieri, et al., Id. (1990)) was assessed by a sensitive clotting assay as described (Altieri, et al., Id. (1989)). Data are expressed as mean±S.E.M. of two independent experiments.
The experimental procedures for the isolation, characterization and ^125I-labeling of factor Xa have been described previously (Altieri, et al., Id. (1989)). […] In the presence of 2.5 mM CaCl_2, before separation of free from cell-associated radioactivity by centrifugation through mixture of silicone oil (Dow Corning, New Bedford, Mass.) at 15,000 xg for 5 minutes at 22° C. Non-specific binding was assessed in the presence of a 50-fold molar excess of unlabeled factor Xa and was subtracted from the total to calculate net specific binding. […]

B1: Effector cell Protease Receptor-1 (EPR-1), on the cell surface (receptor)
chain: MTSRGFQRSCNNPPCSSMTGRRANQIHHLTPDFSLRELLPPKKAGTWADCVSPPCGERDRCEGWADRHTACSSPASTCQVHTQDCDSLNNMRSRHIHCGRLCHANKAVSSSKRDTAFFLPHFSPGKPGNQNSKNEPPKKRERERSSHCYPAAPAAQAEAPLVPLSRQNKSTVETSNLKMLISFPKTLLRGPQEGWWHQGINPGSGAATLGPGSSERPQSIEASCSMARRTFFAVSSNSFFLLLVSFAILFLALSLSSFKNSPRVNSSNCFLTERKAQPDECFLCSSMGSSSGSQPSSSLKQKKHWAKSGSFSVGQWMKPASAIRSGVQRSPPRRASS
**Q.** Which Kd (coagulation factor Xa [1]) does the source give for B1 here?
**A.** The Kd was 10 to 20 nM.

**Q.** And the Kd (coagulation factor Xa [2])?
**A.** The Kd was 10 to 15 nM.
